# Paper PMC9396614
# Molecular target: Arctic mutant (E22G) amyloid-β 1-42 peptide (human)
substance,measurement,value
"recombinant human Bri2 BRICHOS domain, monomer (domain or fragment)","reduction of the nucleation units generated during Aβ42^arc fibrillization, calculated from the fitted ThT kinetics, with monomeric rh Bri2 BRICHOS up to an equal ratio",80%
